This series in a line: soluble on expression in E. coli; label from the status in PepcDB or PDB records.
As to “MKKKNVVVFGGGTGLSVLLRGLKTFPVSITAIVTVADDGGSSGRLRKELDIPPPGDVRNVLVALSEVEPLLEQLFQHRFENGNGLSGHSLGNLLLAGMTSITGDFARGISEMSKVLNVRGKVLPASNRSIILHGEMEDGTIVTGESSIPKAGKKIKRVFLTPKDTKPLREGLEAIRKADVIVIGPGSLYTSVLPNLLVPGICEAIKQSTARKVYICNVMTQNGETDGYTASDHLQAIMDHCGVGIVDDILVHGEPISDTVKAKYAKEKAEPVIVDEHKLKALGVGTISDYFVLEQDDVLRHNASKVSEAILEGKPRTSSSIQAAALEHHHHHH”, the “soluble on expression in E. coli” value is given as “soluble”.
Take “MSLHEASIALALIDVAGDVLREHGAARASALTVRVGQWSSVVPEALAAAFPACAEGTPLAGARLSIERVPGVGECPQHGPVELEVWRGLRCPLCGAPTPRLLQGDELELDQLELDQLELENLEGHHHHHH”: the “soluble on expression in E. coli” value is recorded as “not soluble”.
With “MLEDMSKDALFYNYYAQWIEVYKKDAIREATMAKYRMTQKWVEKLAPELKVCELTRTAYQKILNDYAKEHERQTTLDFHHQLKGAVMDAVDEGLIERDPTRKAIIKGKTPREKKIKYLNQFELHTLIADLDIKEEPNWDWFILLVAKTGMRFSEALAITPKDFDFGRQTLSISKTWDYKGKGGFLPTKNKSSVRKIQIDWQIVVKFSELIKGLPEDEPIFVGEEKIYNSTVNDALTRHCKACGISEISIHGLRHTHASLLLFAGVSIASVARRLGHASMTTTQKTYLHIIQELENKDVDLVMRTLSGL”, the “soluble on expression in E. coli” value is listed as “soluble”.
In the case of “MYKATVIIKLKKGVLNPEGRTIQRALNFLGFNNVKEVQTYKMIDIIMEGENEEKVKEEVEEMCKKLLANPVIHDYEIKVEKIE”, the “soluble on expression in E. coli” value is reported as “soluble”.
For “MVNPEEQPISILFLGIDDNDGRRKKGQDAEHSRSDAMILTTFNQSKHQIRMLSIPRDTISYIPKVGYYDKITHAHAYGGPIAAMDSVEATMNVPVDYYVRVNMKAFVEAVNELGGIYYDVPYDLNEPNTDDTGKIKIKKGYQKLNGDEALAVARTRHHDSDLKRGQRQMELIKILFQKAQEVDSIDKLDNVIQIVGKNAKHNLTNSEIKALAKMYLTNDVEIKTAQLKGKDDMLNGIYYYHPSVESIQKYANLLRKDLELSPINDKNDFLDQRVINHYGSLIPLTPLDSSLLRKEQNDTTDKDKTSNENNDSTNNSDSSNQQQPATDQNLNQNQGGTQQAPQASNNQNGVVNLEHHHHHH” the value was “soluble”; for “VKIDNKTFQVNGRVLLDDLTEEFGIEFDDSEDIDTIGGWLQSRNTNLQKDDYVDTTYDRWVVSEIDNHQIIWVILNYEFNEARPTIGQSDEDEKSE”, “not soluble”.
For “MPKFEVPDGWTVQAFRFTLDPTEDQAKALARHFGARRKAYNWTVATLKADIQAWHASGTVTAKPSLRVLRKRWNTVKDDVCVNTETGVAWWPECSKEAYADGIAGAVEAYWNWQTSRAGKRAGKRVGFPRFKRKGRDQDRVSFTTGAMRVEPDRRHLTLPVIGTVRTHENTRRIERLIKAGRARVLAISVRRNGTRLDASVRVLVQRPQQPKVVHPGSRVGVDVGVRRLATVATADGTAIEQVENPRPLGAALRELRHVCRARSRCTKGSRRYRERTTQISRLHRRVNDVRTHHLHVLTTRLAQTHGRIVVEGLDATEMLRQKGLPGARARRRGLSDAALGTPRRHLSYKTVWYGSALVVADRWFPSSKTCHACRHVQDIGWDEQWQCDRCSVVHQRDDCAAINLARYEETSSIVGPVGAAVKRGADRKTGPRPAGGCEARKGSSPKAAEQPRDGVQVA”, the “soluble on expression in E. coli” value is recorded as “not soluble”.
On to “MGSDKIHHHHHHMSSHLAHGMGTEPVEPDWPPLTEAEVADVVGPSRVVWRSPRPLSAAAVVERGGRRLFVKRHHLSVRTPEGLAEEHAFLRHLRERGAPVVEVLDVATRQEWVYEVHSAGLGTDLYRDDLSWSPFRSSTHARAAGAALARLHLAADGFEAPRRIPQPLVASFTIFAADDPGTALERYVAERPALAGALADHPWRADTRRVLLPLFERLAPHLPLLEPLWTHNDWHASNLLWDASGEVSTVLDFGMSDRTTAVHDLATAIERNAVQWLQPGFPVREQDVDALLDGYQSVRPLTVSESAALPELLPLVHAEFALSEMGYFHGITGSAENTRLAYAYLVDHAEWFTGDAGSHLVDRVRHRAAAAPKPPPAGRPLSDASS”, for which the “soluble on expression in E. coli” value is reported as “not soluble”.
Turning to “MESLIGLVNRIQRACTVLGDYGGGTGSNAFNSLWEALPTVAVVGGQSSGKSSVLESIVGRDFLPRGSGIVTRRPLVLQLHKTDDGTEEYAEFLHLPKKQFTDFALVRREIQDETDRITGKNKQISPVPIHLSIYSPNVVNLTLIDLPGLTKVAVEGQPETIAEDIESMVRTYVDKPNCIILAISPANQDIATSDAIKLAKDVDPTGERTFGVLTKLDLMDKGTNALEVLEGRSYRLQHPWVGIVNRSQADINKNVDMMLARRKEREYFDTSPDYGHLASKMGSEYLAKLLSKHLESVIRTRIPSILSLINKSIEELERELDRMGRPVAVDAGAQLYTILEMCRAFDKIFKEHLDGGRPGGDRIYGVFDNQLPAALKKLPFDRHLSLQSVKKIVSEADGYQPHLIAPEQGYRRLIEGALGYFRGPAEASVDAVHYVLKELVRKSISETEELKRFPSLQVELAAAANSSLEKFREESKKSVIRLVDMESAYLTAEFFRKLPQEIERPVTNSKNQTASPSSATLDQYGDGHFRRIASNVSAYVNMVSDTLRNTIPKACVYCQVRQAKLALLNYFYSQISKREGKQLGQLLDEDPALMDRRLECAKRLELYKKARDEIDAVAWVR”, the “soluble on expression in E. coli” value is on record as “not soluble”.
For the sequence “MGSDKIHHHHHHMNFEVLVKHISTIQNTLQAQAAHAVNLALTSRNWLMGCYIVEFEQNGEDRAAYGEQLLKKLEQRLKTKGLNERRFREFRRLYLVYPQLKESVTQYIASQIQIRQSLTAEFTEPIRRLVTAESENGVWKLSTEHPQTETWMIPADRLFNRLSSTHLNTISGIENPIKRAFYEMETIRGCWSVKELERQIASLYYERSGLSKNKEALSALVQQQVTLLQPKDVINTPVTLEFLGLNERALVTENDLEQSILDNLQHFLLEMGHGFCFEARQKRILIDEDYFFADLVFYHRILKCHIIVELKIDKFRHEYASQLNMYLNYFKAEVMQPDDNPPIGILLCTEKGDTLVKYATAGLDPNIFVQKYMIELPSEEEIKRFILGVNF”, the “soluble on expression in E. coli” value is reported as “not soluble”.
As for “MQSWYLLYCKRGQLQRAQEHLERQAVSCLTPMITLEKMVRGKRTSVSEPLFPNYLFVEFDPEVIHTTTINATRGVSHFVRFGAHPAIVPSSVIHQLSIYKPEGVVDPETPYPGDSVIITEGAFEGLKAIFTEPDGETRSMLLLNLLNKEVKQSVKNTGFRKI”, the “soluble on expression in E. coli” value is given as “not soluble”.
Turning to “AHHHHHHGSSIKIELFGITFENPLILASGVVDMTPELLRRAHKEGAGGVVTKSIGIEPRKGYDNPTVVEVPCGLINAMGLPNPGWKAFLEEFEKESFDFPVIVSIFGGNPEEFAFLAEKLERVGDAFELNLSCPHAKGYGLEIGQDPENVYRVVKAVKDVTDKPVIAKLTPNTSDITKLGLAAEKAEADGVSAINTLKAIAIDIYAKRPILSNKFGGYSGPGIKPIALRAVYDLASKLDIPIIGIGGITTWQDAVEFLLAGASAVQIGTAVYLKGFSVFREIAEGIRKYLEEEGFSSVKEIIGLAQKV”, the “soluble on expression in E. coli” value was “soluble”.
Consider “MTATETVRVRFCPSPTGTPHVGLVRTALFNWAYARHTGGTFVFRIEDTDAQRDSEESYLALLDALRWLGLDWDEGPEVGGPYGPYRQSQRAEIYRDVLARLLAAGEAYHAFSTPEEVEARHVAAGRNPKLGYDNFDRHLTDAQRAAYLAEGRQPVVRLRMPDDDLAWNDLVRGPVTFAAGSVPDFALTRASGDPLYTLVNPCDDALMKITHVLRGEDLLPSTPRQLALHQALIRIGVAERIPKFAHLPTVLGEGTKKLSKRDPQSNLFAHRDRGFIPEGLLNYLALLGWSIADDHDLFGLDEMVAAFDVADVNSSPARFDQKKADALNAEHIRMLDVGDFTVRLRDHLDTHGHHIALDEAAFAAAAELVQTRIVVLGDAWELLKFFNDDQYVIDPKAAAKELGPDGAAVLDAALAALTSVTDWTAPLIEAALKDALIEGLALKPRKAFSPIRVAATGTTVSPPLFESLELLGRDRSMQRLRAARQLVGHALEHHHHHH”, for which the “soluble on expression in E. coli” value is listed as “soluble”.
In the case of “MGHHHHHHHSSENLYFQGHMRKIRVGLIFGGKSAEHEVSLQSARNILDALDPQRFEPVLIGIDKQGQWHVNDPDSFLLHADDPARIALHRSGRGVALLPGAQQQQLRPIQPEQALAQIDVVFPIVHGTLGEDGSLQGLLRMANLPFVGSGVLGSAVAMDKDMAKRVLRDARLAVAPFVCFDRHTAAHADVDTLIAQLGLPLFVKPANQGSSVGVSQVRTADAFAAALALALAYDHKVLVEAAVAGREIECAVLGNAVPHASVCGEVVVHDAFYSYATKYISEHGAEIVIPADIDAQTQQRIQQIAVQAYQALGCAGMARVDVFLCADGRIVINEVNTLPGFTRISVYPKLWQASGLDYRGLITRLIELALERHTDDQLLRSAVELH”, the “soluble on expression in E. coli” value is recorded as “soluble”.
Take “MGSDKIHHHHHHMQKPCIATPFSSYQETVPSLLQAVGAPGLLSRQSCILIKPNLVNASPPPVTLPVAACEALVAACRRWSKARIVIAEGSGDRDLSTGEIFQRLGYERLARRYDVDLVDLNNAELVELQNPLCEVFPTFMMPRMVMDSFVISAAVLKAHSLAEVTLSMKNMIGVAPPAYYQQGGHWKKSAFHAQMHRSIFELNRYRKPDLAFIDASVGLAEYHLGGPTCEPPVDKLLAGFDPVAVDAAGSELLGIPWQQVEHIRLADGLLGRAGK”: the “soluble on expression in E. coli” value is reported as “not soluble”.
Turning to “RVASNLDNKARVTELFNSAYSILTEVEKLAQEGKMSEPEAKALATRLMRNNLYKDNEYVYVADENMTFVATPLDPQLHDTSFHDFKDGKGNSVGR”, the “soluble on expression in E. coli” value was “not soluble”.
Consider “MGSDKIHHHHHHMRRGELNERRDAIIRLLCAQDELSAQDLAARLNVSVQTIRTDLRELDEAALVQRRHGRVRLRQPSENIGYAPRMSVARSEKQQIAMAVKPMIEDGSRVALGTGTTVEACARQLAASHRDLFVATNNIHAVIALQGASGVSVSLAGGAVRLRDLDFVGAASRAFFADYMVDIAIFSCGGLSLSGDVLDYNTDEIAAREAISTCATRRVLVVDREKFGRALPCRKHMIWDYDVVVTGADFPREIMRKCQEAGCEVLRVATDERPLRA”, for which the “soluble on expression in E. coli” value is on record as “not soluble”.
As for “SNAPLLLGKKAPNLYMTDTTGTYRYLYDVQAKYTILFFWDSQCGHCQQETPKLYDWWLKNRAKGIQVYAANIERKDEEWLKFIRSKKIGGWLNVRDSKNHTDFKITYDIYATPVLYVLDKNKVIIAKRIGYENLDDFLVQYEKSLKTK”, the “soluble on expression in E. coli” value is given as “soluble”.
Take “MGSSHHHHHHSSGLVPRGSHMMIVIMDNGGQYVHRIWRTLRYLGVETKIIPNTTPLEEIKAMNPKGIIFSGGPSLENTGNCEKVLEHYDEFNVPILGICLGHQLIAKFFGGKVGRGEKAEYSLVEIEIIDEDEIFKGLPKRLKVWESHMDEVKELPPKFKILARSETCPIEAMKHEELPIYGVQFHPEVAHTEKGEEILRNFAKLCGEL”: the “soluble on expression in E. coli” value is “soluble”.
Regarding “MAHHHHHHMITGGSEKLLTKDSVAQYIRRVSSGLLYESAVLPIQFLIRGFRDIVPCEALASLGEQEMMSLLCGCRANDKKPLWTLAEIKSILVAEHGYQTDSPQMTMLQNILANRLTPAEQRSFLLFCTGCPRLPVGGVGALGAITVVKRSDFTMFHGSSGRNSGGSDGIGGADRKEQNPKQPGEWNSLPNETDWPLPSVNTCFRYLKLPPYPTEDLMYKKLRLSIMQGGETFQLS”, the “soluble on expression in E. coli” value is reported as “not soluble”.
Consider “MSLKVGISMFNILQSTQLSSNTFDFWLEAPRIATHAQAGQFVILRIDEKGERIPLTIAETNPQAGSIRIIFQVIGKTTAALSQLKTSDSLLDITGPLGMPTEVKQYGTVMVVGGGVGIAAIYPIIKALKEAGNRVITILGARTAELVLLQEECRRYSDELIITTDDGSLGKKGLVTEAMEEVIARESVACSWAIGPSIMMKFCTLTAEKHQLPIYVSLNPIMIDGTGMCGGCRVTVDGTMKFACVDGPEFKGNEVNWDEFINRMKQYQEEEAVCFTDRLKEQVEKNGEGGSHHHHHH”, for which the “soluble on expression in E. coli” value is listed as “soluble”.

These data come from the DeepSol protein solubility set.
